According to patent US7193044B1, “Compounds and methods for regulating apoptosis, and methods of making and screening for compounds that regulate apoptosis” (Immunogen, Inc., priority 2000, dated 2007):

How the values were obtained:
[1] = molecular target: T1, PKA (catalytic subunit from bovine heart) (Bos taurus, UniProt P00517); assay: In vitro kinase assay, phosphorylation of BAD and BAD mutants by PKA; assay type: biochemical; details: for in vitro phosphorylation by PKA: purified GST-tagged polypeptides, gamma-32P-ATP, autoradiography
T1 construct: 11 units PKA (catalytic subunit from bovine heart, Calbiochem); purchased Calbiochem; host or cells: bovine heart
Procedure: The ability of full-length BAD and mutant BAD S155A to bind Bcl-XL was also determined (FIG. 3(c)). Full-length BAD (“WT”) and mutant BAD S155A (“S155A”) were produced by in vitro translation and labeled with ^35S-methionine therein. The labeled proteins were then incubated with PKA (“+”) in the presence of unlabeled ATP or a buffer control (“−”). Following the kinase reactions, aliquots of each sample of the four samples were incubated with either GST or GST-Bcl-XL. The protein complex were captured on glutathione-agarose beads. Proteins bound to the beads (“Bound”) (lower panel) and samples of the reactions collected prior to incubation with the beads (“Total”) (upper panel) were analyzed by SDS-PAGE followed by autoradiography.
The GST-tagged BAD and BAD mutants were then expressed individually in cells and the purified GST-tagged polypeptides incubated with purified PKA, in the presence of ^32P radiolabel. A western blot, probed with anti-BAD antibody, was performed on the incubated GST-tagged BAD and BAD mutants to determine whether PKA could phosphorylate the BAD and/or mutant BAD in vitro. The GST-tagged BAD and BAD mutants phosphorylated by PKA could be detected directly by autoradiography due to the incorporation of ^32P radiolabel when the polypeptides were phosphorylated (FIG. 4, upper panel), whereas the total amount of BAD and mutant BAD present in the in vitro reaction was detected by the anti-BAD antibody probe (FIG. 4, lower panel).
In vitro kinase assays were carried out in 30 μl volumes containing 10 mM HEPES buffer, pH 7.5, 100 mM NaCl, 12 mM MgCl2, 1 mM dithiothreitol, […] γ^32P-ATP ([…], NEN), 11 units PKA (catalytic subunit from bovine heart, Calbiochem), and 1 μg purified GST-BAD. Reactions were incubated for 30 min at 30° C. and terminated by the addition of SDS-PAGE sample buffer. Samples were run on a 4–20% SDS-PAGE gel (Novex), transferred to a nitrocellulose membrane and phosphorylated GST-BAD was visualized by autoradiography. To verify that equal amounts of GST-BAD substrates were used, the nitrocellulose was subjected to western blot analysis with 133 ng/ml anti-BAD antibody (C-20).

[2] = tested on: HeLa cells; assay: Fluorescence-based beta-galactosidase assay of BAD-induced cell death in transfected HeLa cells; set-up: species or system human; details: SFM vs SFM+EGF, 12 hours
Procedure: FIG. 12(B) is a graphic representation of the results of a β-galactosidase assay. HeLa cells were co-transfected with the β-galactosidase gene and either HA-BAD (“WT”), HA-BAD S155A (“S155A”), HA-BAD S112A/S136A (“S112A/S136A”) or HA-BAD S112A/S136A/S155A (“AAA”). Transfected cells were then cultured in serum-free medium (SFM) or SFM supplemented with EGF (SFM+EGF) for 12 hours. Cell lysates were prepared and BAD-induced cell death was measured by the loss of β-galactosidase activity in a fluorescence-based assay. Fluorescence was measured at 465 nm. Results shown are the average and standard deviation of triplicate transfections (this experiment was repeated two more times with similar results). Expression levels of HA-tagged BAD and BAD mutants in transfected cell lysates were detected by anti-HA western blot analysis: HA-BAD (“WT”), HA-BAD S155A (“A”), HA-BAD S112A/S136A (“AA”), and HA-BAD S112A/S136A/S155A (“AAA”).
FIG. 12(C) is a graphic representation of the results of a β-galactosidase assay. HeLa cells were co-transfected with the β-galactosidase gene and either an empty vector (“CTL”), wild-type BAD (“WT”), the BAD S155A mutant (“S155A”) or the BAD S155D mutant (“S155D”). Cell lysates were prepared and BAD-induced cell death was measured by the loss of β-galactosidase activity in a fluorescence-based assay. Fluorescence was measured at 465 nm. Results shown are the average and standard deviation of triplicate transfections (this experiment was repeated two more times with similar results).
HeLa cells were co-transfected with the β-galactosidase gene and either wild-type BAD, BAD S155A, BAD S112A/S136A or BAD S112A/S136A/S155A. […] Cell lysates were prepared and BAD-induced cell death was measured by the loss of β-galactosidase activity in a fluorescence-based assay. […]
To measure β-gal activity, HeLa cells were plated in 12-well plates at 5×10^4 cells/well one day prior to transfection. […] Beta-gal activity was measured in extracts using a fluorogenic substrate (MUG, BIO-RAD FluorAce™ β-gal Reporter Assay, #170–3150). […]

B1: BAD S155A: mutant of shorter murine BAD, serine corresponding to Ser155 substituted with alanine; HA- or GST-tagged (protein)
chain: MFQIPEFEPSEQEDASATDRGLGPSLTEDQPGPYLAPGLLGSNIHQQGRAATNSHHGGAGAMETRSRHSSYPAGTEEDEGMEEELSPFRGRSRSAPPNLWAAQRYGRELRRMADEFEGSFKGLPRPKSAGTATQMRQSAGWTRIIQSWWDRNLGKGGSTPSQ
modifications: left off: small tags and cut ends
notes: mutant of shorter murine BAD, serine corresponding to Ser155 substituted with alanine; HA- or GST-tagged
With B1 the “reduction of PKA catalyzed 32P-ATP incorporation” value ([1]; compared to the wild-type mammalian BAD substrate) was “more than 90%”, the “in vitro phosphorylation by PKA” value [1] was “low, but detectable level” and the “in vitro phosphorylation by PKA” value ([1]; listed as GST-BAD S155A) was “dramatically reduced the phosphorylation”. The “effect of EGF stimulation on pro-apoptotic activity of the BAD mutant” value [2] was “does not eliminate the protective effect of EGF”.
